Data from publication PMC11077089, “Molecular basis of A. thaliana KEOPS complex in biosynthesizing tRNA t6A”.

Tests used:
Assay in all cases: EMSA; 1:5 RNA:protein; MST: 20 mM PBS pH 7.5, 300 mM NaCl, 0.05% Tween 20, 25 C, 50 nM RNA; EMSA: 20 mM Tris-HCl pH 7.5, 300 mM NaCl, 5 mM b-mercaptoethanol, 20% glycerol, agarose gel in Tris-glycine pH 8.0 (8.5 for FAM-RNA), 4 C
Conditions in all cases: protein: recombinant;recombinant;recombinant;recombinant; tags: ;none (6His on partner CGI121);6His (C-term);6His (C-term); chain copies: 2;2;2;2; label: 5' 6-FAM; tRNA cloverleaf
[1] = biological target: T1, KAE1 H117A;BUD32;CGI121;PCC1 (Arabidopsis thaliana;Arabidopsis …, UniProt O49653;Q94K14;Q6NMZ4;Q8GWD7 1-353;1-226;1-172;1-96, H117A|||)
T1 sequence 1: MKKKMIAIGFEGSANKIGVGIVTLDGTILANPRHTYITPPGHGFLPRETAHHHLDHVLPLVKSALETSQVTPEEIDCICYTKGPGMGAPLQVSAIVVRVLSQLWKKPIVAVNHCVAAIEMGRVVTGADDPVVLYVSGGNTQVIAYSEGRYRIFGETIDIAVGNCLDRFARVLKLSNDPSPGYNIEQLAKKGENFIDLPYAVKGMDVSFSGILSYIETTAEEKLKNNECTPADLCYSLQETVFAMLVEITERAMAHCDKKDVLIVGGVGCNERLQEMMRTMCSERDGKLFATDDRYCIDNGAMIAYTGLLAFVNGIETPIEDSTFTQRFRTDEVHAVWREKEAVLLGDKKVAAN
T1 sequence 2: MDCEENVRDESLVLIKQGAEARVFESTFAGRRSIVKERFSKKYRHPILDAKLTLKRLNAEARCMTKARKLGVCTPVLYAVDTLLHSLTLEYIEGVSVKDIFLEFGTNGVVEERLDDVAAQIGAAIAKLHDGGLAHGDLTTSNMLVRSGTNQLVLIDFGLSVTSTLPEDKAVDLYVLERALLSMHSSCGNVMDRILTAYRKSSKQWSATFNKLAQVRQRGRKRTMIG
T1 sequence 3: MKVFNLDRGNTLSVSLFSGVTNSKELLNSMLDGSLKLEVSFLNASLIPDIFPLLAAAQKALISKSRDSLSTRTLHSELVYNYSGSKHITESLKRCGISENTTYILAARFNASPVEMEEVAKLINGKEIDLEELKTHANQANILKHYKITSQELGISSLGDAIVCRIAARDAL
T1 sequence 4: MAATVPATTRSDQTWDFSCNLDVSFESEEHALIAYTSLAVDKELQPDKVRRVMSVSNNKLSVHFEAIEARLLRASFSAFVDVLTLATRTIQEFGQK

[2] = biological target: T2, KAE1 K202R;BUD32;CGI121;PCC1 (Arabidopsis thaliana;Arabidopsis …, UniProt O49653;Q94K14;Q6NMZ4;Q8GWD7 1-353;1-226;1-172;1-96, K202R|||)
T2 sequence 1: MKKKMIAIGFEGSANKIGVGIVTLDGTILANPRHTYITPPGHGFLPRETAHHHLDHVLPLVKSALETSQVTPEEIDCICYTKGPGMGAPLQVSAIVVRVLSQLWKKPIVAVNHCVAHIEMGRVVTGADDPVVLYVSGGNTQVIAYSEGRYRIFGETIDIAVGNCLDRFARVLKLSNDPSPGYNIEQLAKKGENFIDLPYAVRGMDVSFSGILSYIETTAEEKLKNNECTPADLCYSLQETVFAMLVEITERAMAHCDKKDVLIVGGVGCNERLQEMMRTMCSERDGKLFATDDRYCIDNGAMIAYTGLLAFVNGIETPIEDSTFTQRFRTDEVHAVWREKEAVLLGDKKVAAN
T2 sequence 2: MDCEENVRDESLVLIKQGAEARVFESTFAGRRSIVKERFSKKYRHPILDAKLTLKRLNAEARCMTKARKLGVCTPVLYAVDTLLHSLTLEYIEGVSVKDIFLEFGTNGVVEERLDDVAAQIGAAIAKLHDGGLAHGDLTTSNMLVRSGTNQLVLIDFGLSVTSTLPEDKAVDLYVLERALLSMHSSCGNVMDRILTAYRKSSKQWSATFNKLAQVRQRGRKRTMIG
T2 sequence 3: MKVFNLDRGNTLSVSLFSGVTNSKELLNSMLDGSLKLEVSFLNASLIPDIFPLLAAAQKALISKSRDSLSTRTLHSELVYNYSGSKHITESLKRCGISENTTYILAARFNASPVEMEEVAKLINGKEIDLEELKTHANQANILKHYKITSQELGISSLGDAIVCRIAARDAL
T2 sequence 4: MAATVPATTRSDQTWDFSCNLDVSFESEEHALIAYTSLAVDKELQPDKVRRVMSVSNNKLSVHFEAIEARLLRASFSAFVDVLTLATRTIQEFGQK

[3] = biological target: T3, KAE1 Y305A;BUD32;CGI121;PCC1 (Arabidopsis thaliana;Arabidopsis …, UniProt O49653;Q94K14;Q6NMZ4;Q8GWD7 1-353;1-226;1-172;1-96, Y305A|||)
T3 sequence 1: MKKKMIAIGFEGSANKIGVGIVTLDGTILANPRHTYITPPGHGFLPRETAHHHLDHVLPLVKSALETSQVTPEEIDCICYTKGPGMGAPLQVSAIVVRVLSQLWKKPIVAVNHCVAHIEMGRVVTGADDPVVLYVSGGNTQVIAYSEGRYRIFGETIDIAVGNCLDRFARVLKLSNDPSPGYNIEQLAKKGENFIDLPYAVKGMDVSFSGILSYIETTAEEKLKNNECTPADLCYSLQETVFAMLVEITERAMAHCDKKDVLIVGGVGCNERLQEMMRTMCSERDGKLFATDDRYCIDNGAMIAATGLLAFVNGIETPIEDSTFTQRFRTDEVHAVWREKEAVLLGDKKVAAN
T3 sequence 2: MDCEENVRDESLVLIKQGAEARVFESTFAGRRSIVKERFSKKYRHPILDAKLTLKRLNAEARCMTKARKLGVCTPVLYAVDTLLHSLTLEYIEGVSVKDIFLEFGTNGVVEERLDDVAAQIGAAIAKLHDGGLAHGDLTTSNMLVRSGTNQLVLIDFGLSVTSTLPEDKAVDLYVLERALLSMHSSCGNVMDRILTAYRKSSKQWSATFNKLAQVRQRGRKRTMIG
T3 sequence 3: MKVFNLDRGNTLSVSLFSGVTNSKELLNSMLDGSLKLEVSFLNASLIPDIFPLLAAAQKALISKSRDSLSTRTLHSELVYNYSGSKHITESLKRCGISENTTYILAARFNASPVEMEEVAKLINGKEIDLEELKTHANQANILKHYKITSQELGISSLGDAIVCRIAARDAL
T3 sequence 4: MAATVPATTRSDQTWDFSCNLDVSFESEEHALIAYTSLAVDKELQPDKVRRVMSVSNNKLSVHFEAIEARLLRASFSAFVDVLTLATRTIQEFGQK

[4] = biological target: T4, KAE1 R284C;BUD32;CGI121;PCC1 (Arabidopsis thaliana;Arabidopsis …, UniProt O49653;Q94K14;Q6NMZ4;Q8GWD7 1-353;1-226;1-172;1-96, R284C|||)
T4 sequence 1: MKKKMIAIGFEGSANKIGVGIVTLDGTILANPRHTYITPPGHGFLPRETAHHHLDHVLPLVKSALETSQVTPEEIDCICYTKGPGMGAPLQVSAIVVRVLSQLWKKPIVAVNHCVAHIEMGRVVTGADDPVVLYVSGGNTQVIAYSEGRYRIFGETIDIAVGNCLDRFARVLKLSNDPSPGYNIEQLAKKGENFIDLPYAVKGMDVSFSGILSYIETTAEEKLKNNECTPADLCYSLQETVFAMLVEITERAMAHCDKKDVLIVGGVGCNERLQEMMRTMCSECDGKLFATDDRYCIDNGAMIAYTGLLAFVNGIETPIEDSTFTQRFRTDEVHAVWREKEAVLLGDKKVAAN
T4 sequence 2: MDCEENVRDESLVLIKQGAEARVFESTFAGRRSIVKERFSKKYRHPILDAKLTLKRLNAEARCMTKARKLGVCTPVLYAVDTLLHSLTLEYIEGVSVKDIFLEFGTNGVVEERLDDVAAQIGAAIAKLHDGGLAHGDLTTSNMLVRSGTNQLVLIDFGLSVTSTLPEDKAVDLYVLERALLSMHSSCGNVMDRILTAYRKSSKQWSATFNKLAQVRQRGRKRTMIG
T4 sequence 3: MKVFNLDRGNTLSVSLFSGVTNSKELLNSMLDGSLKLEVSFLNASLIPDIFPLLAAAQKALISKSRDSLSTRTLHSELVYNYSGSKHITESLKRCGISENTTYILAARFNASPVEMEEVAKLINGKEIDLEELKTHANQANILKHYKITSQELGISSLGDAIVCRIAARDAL
T4 sequence 4: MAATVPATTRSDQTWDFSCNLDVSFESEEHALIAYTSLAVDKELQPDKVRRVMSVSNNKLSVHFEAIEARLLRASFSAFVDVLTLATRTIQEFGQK

Measured: binding result

B1: 5'-6FAM-tRNAArgCCU (structured_RNA)
RNA: GCGCCUGUAGCUCAGUGGAUAGAGCGUCUGUUUCCUAAGCAGAAGGUCGUAGGUUCGACCCCUACCUGGCGCGCCA
binds: all assays above
